One molecule from patent publication US8975044B2, “Polynucleotides encoding for frizzled-binding agents and uses thereof” (OncoMed Pharmaceuticals, Inc., priority 2008, dated 2015) can be followed below.

The subject of assay [1] is PE13 breast tumor. In words: PE13 breast tumor recurrence study. Format: in vivo, Nod-Scid mice. The following applies: taxol 15 mg/kg twice per week + 18R5 20 mg/kg once per week vs taxol + control antibody; taxol stopped at day 70. As for the experimental part: PE13 breast tumor recurrence study with 18R5 mAb: PE13 breast tumor cells were injected into Nod-Scid mice and allowed to grow until the tumors had reached approximately 100 mm^3. The animals were randomized into two groups (n=10) and given taxol (15 mg/kg, twice per week)+Control antibody (black squares) or the same dose of taxol+Anti-FZD 18R5 (gray open circles). Antibodies were dosed at 20 mg/kg once per week. Taxol treatments were stopped at day 70 and the antibody treatments continued.

Assay [2] relates to OMP-LU33 human lung tumors. Kind of assay: OMP-LU33 lung tumor xenograft growth. As to conditions: antibodies 10 mg/kg IP twice per week. It is filed as in vivo, NOD-SCID mice. As for the experimental part: 10,000 OMP-LU33 human lung tumor cells were injected subcutaneously in NOD-SCID mice. Tumors were allowed to grow for 30 days until they reached an average volume of 124 mm^3. The animals were randomized into 4 groups (n=10 per group) and treated with either control antibody (squares), Avastin® (triangles pointing down), anti-FZD 18R5 (triangles pointing up), or the combination of 18R5 plus Avastin® (circles).

B1: 18R5: human anti-FZD antibody; VH SEQ ID NO:10 (as 18R8), VL SEQ ID NO:14; binds FZD1, 2, 5, 7, 8 (antibody, V domains shown)
VH: EVQLVESGGGLVQPGGSLRLSCAASGFTFSHYTLSWVRQAPGKGLEWVSVISGDGSYTYYADSVKGRFTISSDNSKNTLYLQMNSLRAEDTAVYYCARNFIKYVFANWGQGTLVTVSS
VL: DIELTQPPSVSVAPGQTARISCSGDNIGSFYVHWYQQKPGQAPVLVIYDKSNRPSGIPERFSGSNSGNTATLTISGTQAEDEADYYCQSYANTLSLVFGGGTKLTVLG
modifications: 18R5/18R8 heavy chain variable region (VH); 18R5 light chain variable region (VL)
Turning to B1, the “tumor regression and recurrence” value in assay [1] is “enhance the rate of tumor regression and to delay tumor recurrence”. The xenograft tumor growth entry in assay [2] is on record as “inhibits OMP-LU33 xenograft tumor growth”.
